Results as given in paper PMC11900858.

Legend:
[1] = target: FcμR (mouse) (UniProt A1KXC4)
[2] = target: FcαμR (mouse) (UniProt Q2TB54)
[3] = target: FcRn (mouse) (UniProt Q61559)
[4] = target: FcγRIV (mouse)
[5] = target: FcγRI (mouse) (UniProt P26151)
[6] = target: FcγRIIB (mouse) (UniProt P08101)
[7] = target: FcγRIII (mouse) (UniProt P08508)
UniProt P08508, sequence (P08508 31-261): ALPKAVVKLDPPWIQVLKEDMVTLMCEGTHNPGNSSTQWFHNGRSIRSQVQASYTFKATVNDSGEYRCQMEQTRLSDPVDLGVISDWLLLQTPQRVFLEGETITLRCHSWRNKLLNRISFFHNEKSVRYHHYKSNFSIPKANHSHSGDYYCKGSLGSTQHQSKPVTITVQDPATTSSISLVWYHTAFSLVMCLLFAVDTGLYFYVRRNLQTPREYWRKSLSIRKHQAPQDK

UniProt Q2TB54, sequence (Q2TB54 36-535): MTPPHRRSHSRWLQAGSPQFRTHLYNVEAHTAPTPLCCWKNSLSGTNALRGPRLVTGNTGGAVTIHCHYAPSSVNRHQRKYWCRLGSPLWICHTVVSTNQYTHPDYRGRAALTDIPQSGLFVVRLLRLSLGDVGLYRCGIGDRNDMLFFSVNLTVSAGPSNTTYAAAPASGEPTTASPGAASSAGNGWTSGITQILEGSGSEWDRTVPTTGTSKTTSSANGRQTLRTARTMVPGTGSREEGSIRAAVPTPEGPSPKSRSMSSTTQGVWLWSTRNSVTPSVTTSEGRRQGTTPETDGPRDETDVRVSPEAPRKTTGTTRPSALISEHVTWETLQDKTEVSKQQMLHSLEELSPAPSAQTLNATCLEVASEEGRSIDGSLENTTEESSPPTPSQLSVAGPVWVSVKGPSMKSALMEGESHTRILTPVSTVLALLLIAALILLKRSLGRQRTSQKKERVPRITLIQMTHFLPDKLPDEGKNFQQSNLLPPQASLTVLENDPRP
UniProt A1KXC4, sequence (A1KXC4 17-422): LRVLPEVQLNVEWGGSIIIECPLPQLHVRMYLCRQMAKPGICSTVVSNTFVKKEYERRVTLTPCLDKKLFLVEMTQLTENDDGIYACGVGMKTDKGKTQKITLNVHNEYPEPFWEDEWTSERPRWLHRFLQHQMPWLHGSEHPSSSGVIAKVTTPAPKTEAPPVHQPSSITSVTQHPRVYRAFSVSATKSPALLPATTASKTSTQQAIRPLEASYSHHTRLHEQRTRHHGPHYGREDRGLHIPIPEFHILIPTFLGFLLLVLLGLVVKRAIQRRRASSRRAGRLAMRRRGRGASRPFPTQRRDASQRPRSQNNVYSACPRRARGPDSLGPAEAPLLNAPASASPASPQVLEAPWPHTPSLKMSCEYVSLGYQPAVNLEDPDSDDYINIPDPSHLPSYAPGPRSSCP
UniProt P08101, sequence (P08101 30-330): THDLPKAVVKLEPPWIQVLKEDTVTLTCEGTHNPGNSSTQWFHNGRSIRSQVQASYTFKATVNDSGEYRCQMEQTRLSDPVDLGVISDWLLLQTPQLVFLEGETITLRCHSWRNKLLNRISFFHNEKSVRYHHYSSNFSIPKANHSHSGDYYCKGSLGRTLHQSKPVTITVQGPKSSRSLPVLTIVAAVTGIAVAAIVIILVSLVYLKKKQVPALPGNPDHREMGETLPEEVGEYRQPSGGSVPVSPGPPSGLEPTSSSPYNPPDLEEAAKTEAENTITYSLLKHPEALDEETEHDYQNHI
UniProt Q61559, sequence (Q61559 22-365): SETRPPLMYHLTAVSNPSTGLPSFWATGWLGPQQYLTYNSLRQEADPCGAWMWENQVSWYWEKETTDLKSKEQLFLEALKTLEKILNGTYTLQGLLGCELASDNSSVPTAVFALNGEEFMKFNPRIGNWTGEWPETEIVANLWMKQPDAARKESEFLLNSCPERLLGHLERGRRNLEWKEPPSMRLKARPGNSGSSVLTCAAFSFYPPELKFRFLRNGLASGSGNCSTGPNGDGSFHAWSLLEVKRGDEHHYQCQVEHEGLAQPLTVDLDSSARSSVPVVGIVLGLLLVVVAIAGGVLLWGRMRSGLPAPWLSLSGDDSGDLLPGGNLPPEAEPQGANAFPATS
UniProt P26151, sequence (P26151 25-404): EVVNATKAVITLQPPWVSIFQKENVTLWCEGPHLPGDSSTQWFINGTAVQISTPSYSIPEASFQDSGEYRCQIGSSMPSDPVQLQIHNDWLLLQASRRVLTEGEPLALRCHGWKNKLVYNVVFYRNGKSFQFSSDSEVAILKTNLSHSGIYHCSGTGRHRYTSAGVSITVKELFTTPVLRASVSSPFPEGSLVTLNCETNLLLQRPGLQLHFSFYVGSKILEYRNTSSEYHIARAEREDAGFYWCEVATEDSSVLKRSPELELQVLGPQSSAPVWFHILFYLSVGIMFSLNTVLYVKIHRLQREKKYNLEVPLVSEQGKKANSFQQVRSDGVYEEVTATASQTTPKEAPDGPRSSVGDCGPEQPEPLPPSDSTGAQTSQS

T15 IgM (murine monoclonal anti-phosphocholine antibody of the T15 idiotype, IgM form) (from UniProt P01592 22-159)
< 5%: adhesion of T15 IgM-opsonized Spn6A pneumococci to CHO cells stably expressing the receptor (MOI 1, T15 antibody 50 μg/ml); no notable increase; anti-capsule antibody control 85% binding [1] | adhesion of T15 IgM-opsonized Spn6A pneumococci to CHO cells stably expressing the receptor (MOI 1, T15 antibody 50 μg/ml); no notable increase; anti-capsule antibody control 85% binding [2]

T15 IgG3 (murine monoclonal anti-phosphocholine antibody of the T15 idiotype, IgG3 form)
< 5%: adhesion of T15 IgG3-opsonized Spn6A pneumococci to CHO cells stably expressing the receptor (MOI 1, T15 antibody 50 μg/ml); no notable increase; anti-capsule antibody control 85% binding [3] | adhesion of T15 IgG3-opsonized Spn6A pneumococci to CHO cells stably expressing the receptor (MOI 1, T15 antibody 50 μg/ml); no notable increase; anti-capsule antibody control 85% binding [4] | adhesion of T15 IgG3-opsonized Spn6A pneumococci to CHO cells stably expressing the receptor (MOI 1, T15 antibody 50 μg/ml); no notable increase; anti-capsule antibody control 85% binding [5] | adhesion of T15 IgG3-opsonized Spn6A pneumococci to CHO cells stably expressing the receptor (MOI 1, T15 antibody 50 μg/ml); no notable increase; anti-capsule antibody control 85% binding [6] | adhesion of T15 IgG3-opsonized Spn6A pneumococci to CHO cells stably expressing the receptor (MOI 1, T15 antibody 50 μg/ml); no notable increase; anti-capsule antibody control 85% binding [7]
